Source: paper PMC8894971, “ENB1 encodes a cellulose synthase 5 that directs synthesis of cell wall ingrowths in maize basal endosperm transfer cells”

Tests used:
MRP1 (His-TF-MRP1) [1] = target: T1, MRP1 (His-TF-MRP1) (Zea mays, UniProt K7V5I7 1-241); test: EMSA; labeled Mu probe; no shifted band; LightShift EMSA kit standard protocol, ~200 ng protein, 5 ng biotin probe, 6% native polyacrylamide gel; buffer, salt, pH and temperature not stated; conditions: protein: recombinant; tags: N-terminal His-TF (trigger factor, pCold-TF); blunt (duplex implied)
T1 sequence: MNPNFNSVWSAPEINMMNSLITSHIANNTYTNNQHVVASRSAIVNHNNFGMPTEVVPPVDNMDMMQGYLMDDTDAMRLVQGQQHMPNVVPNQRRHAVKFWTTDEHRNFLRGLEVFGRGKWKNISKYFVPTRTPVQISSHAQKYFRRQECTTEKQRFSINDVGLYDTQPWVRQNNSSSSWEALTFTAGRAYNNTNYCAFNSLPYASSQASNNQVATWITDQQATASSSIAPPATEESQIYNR

MRP1 (His-TF-MRP1) [2] = target: T1, MRP1 (His-TF-MRP1); test: EMSA; LightShift EMSA kit standard protocol, ~200 ng protein, 5 ng biotin probe, 6% native polyacrylamide gel; buffer, salt, pH and temperature not stated; conditions: protein: recombinant; tags: N-terminal His-TF (trigger factor, pCold-TF); blunt (duplex implied)

B1: ENB1 promoter Mu probe (dsDNA)
DNA 1: CTACTTATGAGCGACAGAGCGATGTGACTA
DNA 2: TAGTCACATCGCTCTGTCGCTCATAAGTAG
MRP1 (His-TF-MRP1) [1]
  binding result: no binding

B2: ENB1 promoter WT probe (dsDNA)
DNA 1: CTACTTATTATCTACATATCTATGTGACTA
DNA 2: TAGTCACATAGATATGTAGATAATAAGTAG
MRP1 (His-TF-MRP1) [2]
  binding result: binds
